B1: CPEB3 Ribozyme (parent)
chain: UAACAGGGGGCCACAGCAGAAGCGUUCACGUCGCAGCCCCUGUCAGAUUCUGGUGAAUCUGCGAAUUCUGCUGUAUAUCUC

Variants of: B1
Experiment: self-cleavage, relative activity (ratio to wild type); higher = more cleavage; in vitro, sequencing
Summary of the method: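 Relative activity was defined as the cleaved/total read fraction for a variant divided by the same fraction for the unmutated ribozyme. CPEB3 self-cleaving ribozyme libraries were made by rounds of error-prone PCR, barcoded, and transcribed in vitro with T7 RNA polymerase for 5 hours at 37°C, and cleavage ran through transcription plus a 15 min DNase I step before EDTA. Illumina sequencing of template-switched reverse transcripts gave the reads, and DNA sequencing mapped the barcodes. Averages come from three batches, using variants with at least 5 reads.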
UAACAGGGGGCCACUGCAGAAGCGUUCACGUCGCAGCCCCUGUCAGAUUCUGGUGAAACUGCGAAUUCUGCUGUAUAUCUC [A15U U58A] gave a self-cleavage of 0.16. UAACAGGGGGCCACAACAGAAGCGUUCACGGCGCAGCCCCUGUCAGAUUCUGGUGAAUCUGCGAAUUCUGCUGUAUAUCUC [G16A U31G] gave a self-cleavage of 0.47. Variant UAACAGGGGGCCACAACAGAAGCGUUCACGACGCAGCCCCUGUCAGAUUCUGGUGAAUCUGCGAAUUCUGCUGUAUAUCUC [G16A U31A] has a self-cleavage of 0.19. In the case of UAACAGGGGGCCACAACAGAAGCGUUCACGUCGCAGCCCCUGACAGAUUCUGGUGAAUCUGCGAAUUCUGCUGUAUAUCUC [G16A U43A], the self-cleavage is reported as 0.74. UAACAGGGGGCCACAACAGAAGCGUUCACGUCGCAGCCCCUGCCAGAUUCUGGUGAAUCUGCGAAUUCUGCUGUAUAUCUC [G16A U43C] showed a self-cleavage of 0.39. Variant UAACAGGGGGCCACAACAGAAGCGUUCACGUCGCAGCCCCUGUCAGAUUCUGGUGGAUCUGCGAAUUCUGCUGUAUAUCUC [G16A A56G] has a self-cleavage of 0.4. For UAACAGGGGGCCACAACAGAAGCGUUCACGUCGCAGCCCCUGUCAGAUUCUGGUGUAUCUGCGAAUUCUGCUGUAUAUCUC [G16A A56U], the self-cleavage was 0.13. Variant UAACAGGGGGCCACAACAGAAGCGUUCGCGUCGCAGCCCCUGUCAGAUUCUGGUGAAUCUGCGAAUUCUGCUGUAUAUCUC [G16A A28G] has a self-cleavage of 0.25. Work on UAACAGGGGGCCACAACAGAAGCGUUCUCGUCGCAGCCCCUGUCAGAUUCUGGUGAAUCUGCGAAUUCUGCUGUAUAUCUC [G16A A28U] yielded a self-cleavage of 0.21. Variant UAACAGGGGGCCACAACAGAAGCGUUCACGUCGCAGCCCCUGUCAGAUUCUGGCGAAUCUGCGAAUUCUGCUGUAUAUCUC [G16A U54C] has a self-cleavage of 0.66. With UAACAGGGGGCCACAACAGAAGCGUUCACGUCGCAGCCUCUGUCAGAUUCUGGUGAAUCUGCGAAUUCUGCUGUAUAUCUC [G16A C39U] the self-cleavage was 0.15. With UAACAGGGGGCCACAACAGAAGCGUUCACGUCGCAGCCACUGUCAGAUUCUGGUGAAUCUGCGAAUUCUGCUGUAUAUCUC [G16A C39A] the self-cleavage was 0.33. Variant UAACAGGGGGCCACAACAGAAGCGUUCACGUCUCAGCCCCUGUCAGAUUCUGGUGAAUCUGCGAAUUCUGCUGUAUAUCUC [G16A G33U] has a self-cleavage of 0.18. With UAACAGGGGGCCACAACAGAAGCGUUAACGUCGCAGCCCCUGUCAGAUUCUGGUGAAUCUGCGAAUUCUGCUGUAUAUCUC [G16A C27A] the self-cleavage was 0.17. With UAACAGGGGGCCACUGCAGAAGCGUUCACGUCGCAGCCCCUGUCAGAUUCUGGUGAAUCUGCGAAUUCUGCCGUAUAUCUC [A15U U72C] the self-cleavage was 0.87. Work on UAACAGGGGGCCACUGCAGAAGCGUUCACGUCGCAGCCCCUGUCAGAUUCUGGUGAAUCUGCGAAUUCUGCAGUAUAUCUC [A15U U72A] yielded a self-cleavage of 1.09. For UAACAGGGGGCCACUGCAGAAGCGUUCACGUCGCAGCCCCUGUCAGAUUCUGGUGAAUCUGCGAAUUCUGCGGUAUAUCUC [A15U U72G], the self-cleavage was 0.91. UAACAGGGGGCCACAACAGAAGCGUUCACGUCGCAGCCCCUGUCGGAUUCUGGUGAAUCUGCGAAUUCUGCUGUAUAUCUC [G16A A45G] showed a self-cleavage of 0.45. UAACAGGGGGCCACAACAGAAGCGUUCACGUCGCAGCCCCUGUCCGAUUCUGGUGAAUCUGCGAAUUCUGCUGUAUAUCUC [G16A A45C] showed a self-cleavage of 0.14. Variant UAACAGGGGGCCACUGCAGAAGCGUUCACGUCGCAGCCCCUGUCAGAUUCUGGUGAAUCUGCGAAAUCUGCUGUAUAUCUC [A15U U66A] has a self-cleavage of 0.34. Work on UAACAGGGGGCCACUGCAGAAGCGUUCACGUCGCAGCCCCUGUCAGAUUCUGGUGAAUCUGCGAACUCUGCUGUAUAUCUC [A15U U66C] yielded a self-cleavage of 0.23. Variant UAACAGGGGGCCACUGCAGAAGCGUUCACGUCGCAGCCCCUGUCAGAUUCUGGUGAAUCUGCGAAUUCUGCUGUAAAUCUC [A15U U76A] has a self-cleavage of 1.17. UAACAGGGGGCCACUGCAGAAGCGUUCACGUCGCAGCCCCUGUCAGAUUCUGGUGAAUCUGCGAAUUCUGCUGUACAUCUC [A15U U76C] showed a self-cleavage of 0.88. With UAACAGGGGGCCACUGCAGAAGCGUUCACGUCGCAGCCCCUGUCAGAUUCUGGUGAAUCUGCGAAUUCGGCUGUAUAUCUC [A15U U69G] the self-cleavage was 0.34. For UAACAGGGGGCCACUGCAGAAGCGUUCACGUCGCAGCCCCUGUCAGAUUCUGGUGAAUCUGCGAAUUCAGCUGUAUAUCUC [A15U U69A], the self-cleavage was 0.25. UAACAGGGGGCCACUGCAGAAGCGUUCACGUCGCAGCCCCUGUCAGAUUCUGGUGAAUCUGCGAAUUCCGCUGUAUAUCUC [A15U U69C] gave a self-cleavage of 0.35. Variant UAACAGGGGGCCACAACAGAAGAGUUCACGUCGCAGCCCCUGUCAGAUUCUGGUGAAUCUGCGAAUUCUGCUGUAUAUCUC [G16A C23A] has a self-cleavage of 0.08. UAACAGGGGGCCACAACAGAAGCGUUCACGUCGCAGCCCCUGUCAGAUUCUGGUGAAUCUGCGAAUUCUGCUCUAUAUCUC [G16A G73C] gave a self-cleavage of 0.86. With UAACAGGGGGCCACAACAGAAGCGUUCACGUCGCAGCCCCUGUCAGAUUCCGGUGAAUCUGCGAAUUCUGCUGUAUAUCUC [G16A U51C] the self-cleavage was 0.18. For UAACAGGGGGCCACAACAGAAGCGUUCACGUCGCAGCCCCUGUCAGAUUCAGGUGAAUCUGCGAAUUCUGCUGUAUAUCUC [G16A U51A], the self-cleavage was 0.57. UAACAGGGGGCCACAACAGAAGCGUUCACGUCGCAGUCCCUGUCAGAUUCUGGUGAAUCUGCGAAUUCUGCUGUAUAUCUC [G16A C37U] showed a self-cleavage of 0.24. In the case of UAACAGGGGGCCACAACAGAGGCGUUCACGUCGCAGCCCCUGUCAGAUUCUGGUGAAUCUGCGAAUUCUGCUGUAUAUCUC [G16A A21G], the self-cleavage is reported as 0.16. With UAACAGGGGGCCACAACAGAUGCGUUCACGUCGCAGCCCCUGUCAGAUUCUGGUGAAUCUGCGAAUUCUGCUGUAUAUCUC [G16A A21U] the self-cleavage was 0.2. In the case of UAACAGGGGGCCACAACAGAAGCGUUCACGUCGCAGCCCCUGUCAGAUUCUGGUGAGUCUGCGAAUUCUGCUGUAUAUCUC [G16A A57G], the self-cleavage is reported as 0.27.
